Measurements as given in patent US20240199755A1, “ANTAGONISTS AND AGONISTS OF THE TRANSFERRIN RECEPTOR-2 FOR USE IN THE TREATMENT OF DISEASES OF THE BONE” (Kymab Limited, priority 2018, published 2024).

Target: T1, Tfr2-ECD (Mus musculus, UniProt Q9JKX3)
T1 construct: full-length extracellular domain (ECD, aa 103-798) of murine Tfr2; His (N); MBP (N); c3 (protease site between MBP and ECD) (N); made in house; host or cells: Sf9 insect cells (baculovirus, pOCC211-Tfr2-ECD)
T1 sequence (Q9JKX3 103-798): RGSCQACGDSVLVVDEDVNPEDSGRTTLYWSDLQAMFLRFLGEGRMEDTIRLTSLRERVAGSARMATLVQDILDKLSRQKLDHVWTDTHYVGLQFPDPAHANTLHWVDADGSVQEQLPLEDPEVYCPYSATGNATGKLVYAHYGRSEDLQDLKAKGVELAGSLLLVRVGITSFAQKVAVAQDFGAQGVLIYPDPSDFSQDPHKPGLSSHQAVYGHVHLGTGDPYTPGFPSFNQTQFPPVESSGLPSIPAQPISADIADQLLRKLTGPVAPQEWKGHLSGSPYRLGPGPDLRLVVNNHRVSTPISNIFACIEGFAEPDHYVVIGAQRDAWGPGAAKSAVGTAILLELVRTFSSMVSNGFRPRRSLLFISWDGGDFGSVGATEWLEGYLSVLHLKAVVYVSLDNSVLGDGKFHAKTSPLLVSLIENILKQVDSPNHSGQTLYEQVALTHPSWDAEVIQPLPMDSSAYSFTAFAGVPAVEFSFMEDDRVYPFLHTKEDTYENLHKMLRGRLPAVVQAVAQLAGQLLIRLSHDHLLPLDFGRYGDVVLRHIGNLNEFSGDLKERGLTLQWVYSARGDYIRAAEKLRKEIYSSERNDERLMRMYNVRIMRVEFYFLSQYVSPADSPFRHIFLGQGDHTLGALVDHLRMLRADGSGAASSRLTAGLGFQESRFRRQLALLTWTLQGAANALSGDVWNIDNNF
Test: SPR binding of holo-Tf and BMP receptors to Tfr2-ECD immobilized on the sensor chip
Parameters: species or system murine
Details: 200 nM BMP receptors; binding level normalized to molecular weight
Method: For this purpose, Tfr2-ECD is immobilized on a Series S Sensor Chip C1 (GE Healthcare), by means of coupling the amino groups at 25° C. The carboxyl groups on the chip surface are activated for 7 minutes using a mixture of 196 mM 1-ethyl-3-(3-dimethylaminopropyl) carbodiimide-hydrochloride and 50 mM n-hydroxysuccinimide at a flow rate of 10 μl/min. Subsequently, 5 μg/ml Tfr2-ECD, diluted with sodium acetate buffer (pH 4.5), is injected at a flow rate of 5 μl/min up to a relative occupancy of 200 RU. Non-reacted groups are inactivated by injecting 1 M thanolamine-HCl (pH 8.5) for 7 minutes at a flow rate of 10 μl/min. In order to prepare a reference surface, the same procedure is carried out but without Tfr2-ECD being injected.
The binding assays are carried out at 37° C. at a flow rate of 30 μl/min. Each analyte is diluted by a running buffer (HBS-P, pH 7.4 together with 50 nM FeCl3). […] The values of the binding level are read out, relative to the baseline, 10 s before the end of the injection and are corrected with respect to the molar mass. […] The binding parameters are determined using the Biacore™ T100 evaluation software 2.03. […]
For binding analysis, an injection of analyte for 240 s or 300 s over a Tfr2-ECD surface was followed by 1000 s dissociation. The values of the binding levels were recorded from referenced signals 10 s before the end of injection relative to baseline response. […]

Binding response of BMPRs to Tfr2-ECD compared with BMPs: weaker than BMPs
B1: BMPR-II: type II BMP receptor (R&D Systems) (protein, UniProt Q13873 27-1038, looked up)
Bone morphogenetic protein …: SQNQERLCAFKDPYQQDLGIGESRISHENGTILCSKGSTCYGLWEKSKGDINLVKQGCWSHIGDPQECHYEECVVTTTPPSIQNGTYRFCCCSTDLCNVNFTENFPPPDTTPLSPPHSFNRDETIIIALASVSVLAVLIVALCFGYRMLTGDRKQGLHSMNMMEAAASEPSLDLDNLKLLELIGRGRYGAVYKGSLDERPVAVKVFSFANRQNFINEKNIYRVPLMEHDNIARFIVGDERVTADGRMEYLLVMEYYPNGSLCKYLSLHTSDWVSSCRLAHSVTRGLAYLHTELPRGDHYKPAISHRDLNSRNVLVKNDGTCVISDFGLSMRLTGNRLVRPGEEDNAAISEVGTIRYMAPEVLEGAVNLRDCESALKQVDMYALGLIYWEIFMRCTDLFPGESVPEYQMAFQTEVGNHPTFEDMQVLVSREKQRPKFPEAWKENSLAVRSLKETIEDCWDQDAEARLTAQCAEERMAELMMIWERNKSVSPTVNPMSTAMQNERNLSHNRRVPKIGPYPDYSSSSYIEDSIHHTDSIVKNISSEHSMSSTPLTIGEKNRNSINYERQQAQARIPSPETSVTSLSTNTTTTNTTGLTPSTGMTTISEMPYPDETNLHTTNVAQSIGPTPVCLQLTEEDLETNKLDPKEVDKNLKESSDENLMEHSLKQFSGPDPLSSTSSSLLYPLIKLAVEATGQQDFTQTANGQACLIPDVLPTQIYPLPKQQNLPKRPTSLPLNTKNSTKEPRLKFGSKHKSNLKQVETGVAKMNTINAAEPHVVTVTMNGVAGRNHSVNSHAATTQYANGTVLSGQTTNIVTHRAQEMLQNQFIGEDTRLNINSSPDEHEPLLRREQQAGHDEGVLDRLVDRRERPLEGGRTNSNNNNSNPCSEQDVLAQGVPSTAADPGPSKPRRAQRPNSLDLSATNVLDGSSIQIGESTQDGKSGSGEKIKKRVKTPYSLKRWRPSTWVISTESLDCEVNNNGSNRAVHSKSSTAVYLAEGGTATTMVSKDIGMNCL
